The results in this text go back to a protein production outcome set (Wang et al. 2014).

A short description of the data set: label from the status in PepcDB records.
For the sequence “MKHYSHGIDGLRSGLSPSAKPFAIGSSSSPAFSLKSEHEDSIWGDYTLDLSFLSSDDQRSGLDDDDSLSNLSRDVETNKEGLVLEEKIASSGKVLVNPNPSFSKLPEVLMKSSDVVGDAKLGLSCVSEKSSTESDLDESEEDSPCWKGMLSHKSLASGTKSMTSRRSTDDLSGFRKLNPLAPQFIPSSSKKKLETDGEKCEETSSSSLKKSLSSTFPSSSGEFDLTDPPLEDGRNDAAEKTSILTHNADEILGFVTSDSVSKTVSMLDSRNEFQPSKRLDPLAPVFVPSSAKLGPSVHEKLGDFVVNAYSTSALASSHVKSLDKGKVVTSSGEVGHSFKSQYGGHDFGSTSSYGPWIESEVGITEYAKLGSSNKSQGQRRLNPLARQFSLADAKQKPYGYGKNQAADDLSLVVNTSGLYIPARYREDHNVVDADLAQSSVNVERFLPNMSHGGSSLITPKADSNFGSTKWIAVEPNPTFSVKGNRDFKHHLPFHVVETAASSSTSDMKALPGPSPKMDVKKLLTTMHGLSELLTLAHGSESSDSPNAEELDLINSTVQNLNLYIQNNSQEHAGNQSVAQYNSYDLKLLPNKSKLSIRDHQFPTANNMTVDLDVKRKDKYSVVSRETVPGSRSYQYGATEDNGFGQVVPTNGYQQHQGVEQINQNALFYKSLWLKAEADRCLMVYETSLSNPYP”, the protein production result is “failed”. “MKIACVVLTYNRLSLLKRCIDSIRNQTYQEFDIYVIDNASTDGTAHWLSLQNDLTVISIHENKGPANGFYTCLQVPYDDGYDWIWMMDDDGVADKGQLEELLNKTVKNNLYFTNALVCNIDNPEKIAFGAKKTIDTQREELIKGNINPFNGTFIHRRVIEKNGNIMREMYMYGCETEYQLRAIKNGFQVATVTSAIHYHPSPKVSICHLIPYIKYCSIIDYPIDTLFYIRNKAYINYTYLGFKRSLFMITSYSLYYLFRLKIRKVLLFWKYYREGCKGVVGNKKQLEHHHHHH”: the protein production result is given as “not failed”. Regarding “MKIAVDAMGGDNAPQAIVEGVMLAKQDFPDIEFQLYGKEAEIKKYITDEKNITIIHTDEKIASDDEPVKAIRRKKTASMVLAAQAVKNGEADAIFSAGNTGALLAAGLFIVGRIKNVERPGLMSTLPVMGEPDKGFDMLDLGANADNKPEHLVQYAVLGSFYAEKVRNVQNPRVGLLNNGTEETKGSELTKKAFELLAADETINFVGNVEARELLNGVADVVVTDGFTGNAVLKSIEGTAMNMMSLLKTAILSEGVKGKMGALLLKNALHGMKDEMDYSKHGGAVLFGLKAPVIKTHGATGPDAVRYTIRQIHTMLETQVVPQLVEYYEGKAE”, the protein production entry was “not failed”. For “MKIAVVDGQGGGIGKAVVEKLRKELPEDTQIIALGTNALATTLMLKAGANEGASGENAIVFNAPKVDIIVGPIGIISANSMMGELTPLMAAAIAESPARKILIPLNRCNIEIAGVKNEPLPYYIEHAVEMVKKYVEGHIALEHHHHHH”, the protein production result was “not failed”. On to “MKIFAVVVTYNRLALLKKVIDLLKRQTRQLDSIVIVNNGSTDGTKEWLEQEKNITLINQSNSGGAGGFETGVKYAYENEADWIWMMDDDVFPNIDCLEKLLGWTSISQCIQPRRYYSDDVEVNFEQWLDPITYSKFGYWQEKSFNNGKKFCAINVGCFEGMFVSKSIVNKIGFPDKRFFIAEDDTIYGFAASFYTNVILVSDAIMVRARRSSDRSVSPMYTYYACRNFHLVYESLNLLLDKKNRFLYIKYIYQFVHQIYLSIFLYDNKMKHLISVFRGFYDCFRKKNGATYLEHHHHHH”, for which the protein production result is reported as “failed”. With “MKIFLDSAITTDIQDRLATEIIDGVTTNPTLIKKSNEDPDVVYKELYDMRVKDISIEVRGDTAQELAANGILYGRKYGEVATIKLPCTVEGIKACKKLSILGHKTNMTLVFSVSQAILCAKAGATYVSPFVGRLDQIGEDGIQLIRDISRVYCVSGVKTQILAASIRSPKQAEDAYLAGADICTLPVKVFDQMFKHTLTDDGLKQFAIDFGINF” the entry was “failed”. “MKIGDKVRFLSEVGGGIVTGFKGKDFVLVEDADGFDIPMPIRECVVIEADDYNIKRKPAATAPKQEEPAKPAKPEMPVIQRQPEVRGGDTLNVFLAYVPEDAKAMMTTPFEAYLVNDSNYYLYYTYLSAEGKAWNNRSHGLVEPNTKLLLEEFTKDVLNEMERVAVQLIAFKDGKPAAIKPAVSVELRIDTVKFYKLHTFSASDFFEEPALIYDIVKDDVPAKQVYVSAEEIQSALLQKKFVDKPKSQPIMKPNHGQSGKNGIIEVDLHIDSLLDDTHGMSNSEILNYQLDKFREVIEANKEKREQKVVFIHGKGDGVLRKAIIDELKRKHSNYRYQDASFQEYGFGATMVTIK”: the protein production result was “not failed”. With “MKIGFLGFGKSNRSLLKYLLNHQEAKFFVSEAKTLDGETKKFLEEHSVEYEEGGHTEKLLDCDVVYVSPGIKPDTSMIELLSSRGVKLSTELQFFLDNVDPKKVVGITGTDGKSTATALMYHVLSGRGFKTFLGGNFGTPAVEALEGEYDYYVLEMSSFQLFWSERPYLSNFLVLNISEDHLDWHSSFKEYVDSKLKPAFLQTEGDLFVYNKHIERLRNLEGVRSRKIPFWTDENFATEKELIVRGKKYTLPGNYPYQMRENILAVSVLYMEMFNELESFLELLRDFKPLPHRMEYLGQIDGRHFYNDSKATSTHAVLGALSNFDKVVLIMCGIGKKENYSLFVEKASPKLKHLIMFGEISKELAPFVGKIPHSIVENMEEAFEKAMEVSEKGDVILLSPGGASFDMYENYAKRGEHFREIFKRHGGDEV” the entry was “failed”; with “MKIIAFGASTSSTSINKALATFTANLVDGAQVQVLNINDYSVPMFSEDLEKEIGQAEGAQAFLRDLAQADAFVISFAEHNGHYPAAYKNLFDWATRINRALFGDKPAVYLSTSPGPGGAKSVLAAATASAPFFGGNVKASVSVPSFYDNFDLEQGVVTKPEIVAELKAAVAKLSA”, “failed”; with “MKIIENYKGLPKSIYFLFLVQVINRLGDFVFPFLSLLLTQKLKFSMATTGTIVMIASVVGVPASFIGGKIADKSSRKLTYILGQSFAAIVILICGFINIPNLTVALLIASSFFNGFVRPTISAMVADLLPASKRQMGSSLLYLGINFGVAVGPIIAGFLFNNYLSLLFIIDALTSFIAVIIVLILIPDTKAVKHVGEDRIEEKEEKGNLLQILLKRPFVICFFGVDMIYSLAYRQCSFSMPIMMNKVFGYSGSSKYGFLMSVNALTVVALTIFVMHVTKRFRTLTNMAFSGLFYAVGFGMISIIGNSYLLFIISTVIWTMGEILGATNFGVYLANNSPRNCRARFGAVGELISSIGGAIGIFGAGKLIESYGINMIWRVIFIIVLLGAGLMLTLQYFQTKRVEQKIAHEI”, “failed”.

Take “MKIIIIGCGKVGAYVAKQLLDSHHQVTIIERDQKRFEQVLQIFSQAEVLHGDGTSPILLEKCSVETANAVAYLTGKDEINLVGSTVAKFNYAVDRVVARVNNPKNEWLFNADMGVDSRVSQASLLASVIINEVNIESTATLLKLNDDENAIVEFVLSKGASVHGKTVKTINFPSDVVLISVHRQGQNIIPKGETVLLEGDHILAYTNSQNQEKLAQLFR”: the protein production result is on record as “failed”. With “MKIKAISIDIDGTITYPNRMIHEKALEAIRRAESLGIPIMLVTGNTVQFAEAASILIGTSGPVVAEDGGAISYKKKRIFLASMDEEWILWNEIRKRFPNARTSYTMPDRRAGLVIMRETINVETVREIINELNLNLVAVDSGFAIHVKKPWINKGSGIEKASEFLGIKPKEVAHVGDGENDLDAFKVVGYKVAVAQAPKILKENADYVTKKEYGEGGAEAIYHILEKFGYL” the entry was “not failed”. For “MKIKANGNEVQIEREMTIFEMLDALNVSMKEYVTVQLNGQIIPRSEYDKVTVKDGDEVEFLYFMGGGLL”, the protein production entry is “failed”.

With “MKIKGTEKVPILIFLGALAIGIAFLPPENSLTYDGALYINIARSLTKSVTSFTYQGIYMMYRPPLYPYTLSIFFRVFSSNHLLIARLVSVFSFALTSVLVYLLTLEMFRDSVKGIIASLFYIFNPLAFTMAGRELVHSEFTFFYTLAIYLLYTGKVRKSNTRIYLSFIAAGLAILTRYTGLSIVLVFLTYLWLTEDWNWVRRREYLIGFALLFLTLLPWLYMGHLYYGGFFRPFKIASKVVTLDRPVSAFDFIKMVIGDMGFLLPALAVLGFFRVKKDENGWLILSWLVMGGGGILTVTHKESRFITFLSPVIAILASEGIYLLSNLTPRIRRNNIVAVILALLLLIPIGMKADNLRDRWSIVGVYDSNVVRYVSEHYDGKKILVSPYLYTIAGYYYPNAEIDMILNRKEIVEKIAKGYYDVIIHKDPNVYLNIEESGNYVLVKEFHGGRFKVYINRRSLAK”, the protein production entry is “failed”. With “MKILILGGTRFLGRAFVDEALQRGHEVTLFNRGTNKEVFPEVEQLIGDRNNDVSSLKNRKWDVVIDTCGFSPHHIRNVGEVLNDNIEHYVFISSLSVYKDWILHDIKEDYILQPEPTDDQIKAVENGEVSPYEYYGALKVLCEKEAEKYWPGRVLHVRAGLLSGMFDYTDRLPYWIQRVAKGGKVLVPGRKDRPVQIVDIKDVANWGLNMAENKNAGTFNVTGPNYDLTMEELLNTCKKVMNSDAEFVWVEESFMNEHNVQPWTEMPLWLPEIFSLEGETKPWKGGFTISIENAVKEGLTFRRIEETVTDVYEWMKSTDEWELKAGISGEREKELLERWYQ” the entry was “failed”. With “MKILLFICGEGLGHTGRCLALGKEFLAAGHEVNFGAYGYSKGLVQKTGYSAYEIPSEIKLAGEAGTFDIRKSIKETLNNLSPSGFRKILRLIEKLDPDVVLSDGYYTGILAAQKRKVPVYFIGHQFNMEEFFWKKGLFAGIAGIFVKRFYNYVFSSVDGIIVPDYPLPYSVNRKNFTISRAVNDNIFFSGPLIRCRYQEAGEKAFKRPNVLSTIGAFGYRAAVFRNVLEAAKLDPSIYYTFISGPEIDPEQFSKVPENVEFTGFTENPFPYYKGSDLVITAGGHGTIMESLAFGLPILSFPDEKHAEQENNASVLEEAGYGKRMSYLTPPEVILACIREIFEDENYSKKTRRLMELAEVLDGPAAVRKFLEEKHRGLEHHHHHH”, the protein production entry is “failed”. With “MKILRRTITGAATGLLLALPGVALAGTTLRVASEEAFATPAKVAAQSALEHVEKTLPDATGGEVSVQLYPGGALGSEKELIKALADGTVDAMVLSPGNAAGIVPEVQLFSASYLFESYDHARAVIKDDAFFEALAQIIAEKQAGFQLAGIGLTGTRNYYSRSRAVETIEDLSGVKMRVMSSPTEFKVWSELGTLPTTIPAPEIYTSLQTGVVDAAESSLPAISGSKYYEVAPYISLTQHQFNLHLFLVSDIAMSRLSEGQQAAVLQAFREAGHIEIDEAIRLSDEVLAFLRERPGVTVTEVDTAPFAQKLRAVQDEVATGLGVEPLLEIIRSHGTQG” the entry was “failed”; with “MKILSFAVLAAICLPMMPITTFAAETSATNALSQSQLFSRGDEYANVKISPTGKYLSAITSVEGKNVLLVLDAQTKKLLNAIRFPSNAQVGTYEWASSERIVLAKEYLKGWSDVPQYYGELMAVNADGSRPAYLFGFNSGEQQTGSNIKKNTAIKATAFILDPLPDDERYMLVNAIPWNNESSLNLELKQDVYRVDLFSGVRKRITGSPIGQARFMTDHEGEVRFVTGEDGQNVTKVFYRKDGDWVNTDKLNLGLSDFTPISFADNKNTIYAAGRVGTETLGVYRINLETGEKTEIIQDEVVDPSNFWINGTNKQLYAVEFENGYPSYAFVDNNDNHAKLLKDLIAALPGHQVQIVSETRNGEQLVVIAFNDRNPGDYYLFDTKKLKLEYLAAARKWLDPEQMAEVKPISFTNRDGQKIHGYLTLPYGKEAKNLPLVVNPHGGPHGIRDWWGFDPQNQLLAQNGMAVLQVNFRGSGGYGERFEQAGYQKWGSDIQHDIIDATQYVIGQGFVDKERICIAGGSFGGYSALQSAVLAPDMFKCAVGFAGVYDLELMFDEGDVARTRSGTSYLKDVLGQDKATLKAMSPSENVAKLKANLLLVHGGEDERAPIEQLESLEKALKNHNYPYQKLVMDNEGHGFYNDTHRAKYYDQMLSFLKTNLKL”, “failed”.
